Test results: patent US20230381328A1, “COMPOUND FOR THE PREVENTION OR TREATMENT OF MYASTHENIA GRAVIS” (ABLEVIA BIOTECH GMBH, priority 2020, published 2023)
Where no end group is shown, it is not given here.

B1: HWNPADY, linear mimotope (peptide)
peptide: HWNPADY
B2: …, linear mimotope (peptide)
peptide: GGGSLRYNP
B3: YNL PWNP, linear mimotope (peptide)
peptide: YNLPWNP
B4: …, linear mimotope (peptide)
peptide: LRVNPADYG
B5: …, linear mimotope (peptide)
peptide: GGGSLRFNPAD
B6: WNPADYR, linear mimotope (peptide)
peptide: WNPADYR
B7: NPDDYGH, linear mimotope (peptide)
peptide: NPDDYGH
B8: …, linear mimotope (peptide)
peptide: WNPDDYGHV
B9: …, linear mimotope (peptide)
peptide: DVRLRWNPSDY
B10: …, linear mimotope (peptide)
peptide: VRHRWNPAD
B11: CNLKYNP, linear mimotope (peptide)
peptide: CNLKYNP
B12: …, linear mimotope (peptide)
peptide: SLRVNPADY
B13: …, linear mimotope (peptide)
peptide: SLRFNPADY
B14: …, linear mimotope (peptide)
peptide: VDCNLKYNP
B15: …, linear mimotope (peptide)
peptide: RPNPADYGG
B16: …, linear mimotope (peptide)
peptide: GSLRRNPAD
B17: …, linear mimotope (peptide)
peptide: GSLRFNPAD
B18: …, linear mimotope (peptide)
peptide: LRPNPADYG
B19: …, linear mimotope (peptide)
peptide: LRWNPADYGGF
B20: NPADYGN, linear mimotope (peptide)
peptide: NPADYGN
B21: …, linear mimotope (peptide)
peptide: QWVDCNLKFNP
B22: YNLKYNP, linear mimotope (peptide)
peptide: YNLKYNP
B23: NPADYGI, linear mimotope (peptide)
peptide: NPADYGI
B24: LRFNPAD, linear mimotope (peptide)
peptide: LRFNPAD
B25: …, linear mimotope (peptide)
peptide: RLRGNPADY
B26: RGNPADY, linear mimotope (peptide)
peptide: RGNPADY
B27: …, linear mimotope (peptide)
peptide: SLRWNPADYHG
B28: …, linear mimotope (peptide)
peptide: QWVDYNLKFNP
B29: …, linear mimotope (peptide)
peptide: RWNPADYGH
B30: …, linear mimotope (peptide)
peptide: DVRLRFNPADY
B31: …, linear mimotope (peptide)
peptide: DVRLRINPADY
B32: RRNPADY, linear mimotope (peptide)
peptide: RRNPADY
B33: …, linear mimotope (peptide)
peptide: VPLRWNPAD
B34: …, linear mimotope (peptide)
peptide: HSLRWNPAD
B35: …, linear mimotope (peptide)
peptide: ALRWNPADY
B36: …, linear mimotope (peptide)
peptide: GNPADYGGI
B37: LRINPAD, linear mimotope (peptide)
peptide: LRINPAD
B38: RPNPADY, linear mimotope (peptide)
peptide: RPNPADY
B39: …, linear mimotope (peptide)
peptide: RIRWNPADY
B40: …, linear mimotope (peptide)
peptide: RLRYNPADY
B41: …, linear mimotope (peptide)
peptide: HRLRWNPAD
B42: RTNPADY, linear mimotope (peptide)
peptide: RTNPADY
B43: RHNPADY, linear mimotope (peptide)
peptide: RHNPADY
B44: …, linear mimotope (peptide)
peptide: IDVRLRFNPAD
B45: …, linear mimotope (peptide)
peptide: VDYNLKFNP
B46: …, linear mimotope (peptide)
peptide: VDCNLKFNP
B47: NPADYDG, linear mimotope (peptide)
peptide: NPADYDG
B48: …, linear mimotope (peptide)
peptide: LRWNPADYPGI
B49: WNPADYH, linear mimotope (peptide)
peptide: WNPADYH
B50: GSLRYNP, linear mimotope (peptide)
peptide: GSLRYNP
B51: …, linear mimotope (peptide)
peptide: GGGSLRRNPAD
B52: …, linear mimotope (peptide)
peptide: LRWNPADYHGI
B53: …, linear mimotope (peptide)
peptide: WRLRWNPAD
B54: …, cyclic mimotope (peptide)
peptide: VRLRWNPADYP
modifications: also: cyclic peptide, mode of cyclisation not given here

Target: monoclonal antibody mAB 198
Assay: peptide microarray, fluorescence, linear peptide

Q: For B1, which relative signal [%] is on record?
A: 7.4%

Q: B2 was tested. Which relative signal [%] did it give?
A: 7.1%

Q: With B3 as the binder, how does the relative signal [%] read?
A: 7.6%

Q: With B4 as the binder, how does the relative signal [%] read?
A: 31.6%

Q: B5 was tested. Which relative signal [%] did it give?
A: 8.1%

Q: With B6 as the binder, how does the relative signal [%] read?
A: 40.6%

Q: For B7, which relative signal [%] is on record?
A: 7.7%

Q: B8 was tested. Which relative signal [%] did it give?
A: 8.8%

Q: How did the relative signal [%] turn out when B9 was run?
A: 6.8%

Q: Which relative signal [%] does the source give for B10 here?
A: 8.1%

Q: Which relative signal [%] does the source give for B11 here?
A: 6.7%

Q: How did the relative signal [%] turn out when B12 was run?
A: 6.7%

Q: For B13, which relative signal [%] is on record?
A: 6.5%

Q: Which relative signal [%] does the source give for B14 here?
A: 6.1%

Q: For B15, which relative signal [%] is on record?
A: 8.6%

Q: Which relative signal [%] does the source give for B16 here?
A: 9.5%

Q: B17 was tested. Which relative signal [%] did it give?
A: 9.3%

Q: For B18, which relative signal [%] is on record?
A: 6.1%

Q: Which relative signal [%] does the source give for B19 here?
A: 10.6%

Q: For B20, which relative signal [%] is on record?
A: 6.5%

Q: B21 was tested. Which relative signal [%] did it give?
A: 6.4%

Q: With B22 as the binder, how does the relative signal [%] read?
A: 8.3%

Q: Which relative signal [%] does the source give for B23 here?
A: 8%

Q: With B24 as the binder, how does the relative signal [%] read?
A: 37.1%

Q: Which relative signal [%] does the source give for B25 here?
A: 6.9%

Q: Which relative signal [%] does the source give for B26 here?
A: 6.9%

Q: For B27, which relative signal [%] is on record?
A: 10.6%

Q: Which relative signal [%] does the source give for B28 here?
A: 10.9%

Q: For B29, which relative signal [%] is on record?
A: 9.4%

Q: B30 was tested. Which relative signal [%] did it give?
A: 10%

Q: How did the relative signal [%] turn out when B31 was run?
A: 8.5%

Q: For B32, which relative signal [%] is on record?
A: 9.9%

Q: For B33, which relative signal [%] is on record?
A: 7.6%

Q: For B34, which relative signal [%] is on record?
A: 6.6%

Q: How did the relative signal [%] turn out when B35 was run?
A: 6%

Q: For B36, which relative signal [%] is on record?
A: 8.9%

Q: With B37 as the binder, how does the relative signal [%] read?
A: 9.2%

Q: Which relative signal [%] does the source give for B38 here?
A: 9.5%

Q: B39 was tested. Which relative signal [%] did it give?
A: 6.8%

Q: How did the relative signal [%] turn out when B40 was run?
A: 6.5%

Q: How did the relative signal [%] turn out when B41 was run?
A: 6.7%

Q: Which relative signal [%] does the source give for B42 here?
A: 7.2%

Q: Which relative signal [%] does the source give for B43 here?
A: 8.9%

Q: For B44, which relative signal [%] is on record?
A: 7.9%

Q: With B45 as the binder, how does the relative signal [%] read?
A: 7.6%

Q: How did the relative signal [%] turn out when B46 was run?
A: 6.8%

Q: Which relative signal [%] does the source give for B47 here?
A: 10.3%

Q: With B48 as the binder, how does the relative signal [%] read?
A: 6.5%

Q: Which relative signal [%] does the source give for B49 here?
A: 9.4%

Q: B50 was tested. Which relative signal [%] did it give?
A: 34.4%

Q: How did the relative signal [%] turn out when B51 was run?
A: 10.6%

Q: With B52 as the binder, how does the relative signal [%] read?
A: 7.2%

Q: Which relative signal [%] does the source give for B53 here?
A: 9%

Target: monoclonal antibody mAB 198
Assay: peptide microarray, fluorescence, cyclic peptide

Q: With B54 as the binder, how does the relative signal [%] read?
A: 100%
